The supplement of paper PMC9170038

Test system: MS2 coat protein
Assay: apparent KD of MS2 coat protein; designed switch direction (-1 OFF switch, 1 ON switch): -1; higher = weaker reporter binding
In short: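 The apparent KD reported per design is the median over clusters of curve fits to normalised cluster fluorescence. The RNA switches were transcribed on Illumina chips by stalled E. coli RNA polymerase. SNAP-549-labelled MS2 coat protein was titrated from 0.7 or 1.5 nM, doubling up to 3 µM, in Tris-HCl pH 7.5 buffer containing KCl, MgCl2, BSA, DTT, tRNA and Tween-20, with no input, 200 uM small-molecule ligand, or an oligonucleotide input.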

[1] = input ligand: microRNA oligo, concentration not stated
[2] = Eterna round: R95, input ligand: FMN 200 uM
[3] = Eterna round: R95, input ligand: microRNA oligo, concentration not stated
[4] = Eterna round: R95, input ligand: none

| Sequence | apparent KD of MS2 coat protein (input ligand: FMN 200 uM) [nM] | apparent KD of MS2 coat protein (input ligand: none) [nM] | apparent KD of MS2 coat protein [1] [nM] | apparent KD of MS2 coat protein [3] [nM] | further results |
| --- | --- | --- | --- | --- | --- |
| GUCCUACAUGAGGAUCACCCAUGUGAGGAUAUGCGAUUAGCUGCUAGGUAGUUAGUAUGUAGAAGGCGCAUGAA [EX1 #77] (Eterna round: R97, puzzle: Exclusion 1) | 15.9 | 14.6 | – | – | – |
| UGUUGUUACGUAGGAUAUCCACCAACAGGUGGAAGGAUAUGUACGCAGAAGGUUCGCCAACAGGCGGAGAAGGACGUGUUAACA [pwkr exNG2 2xF7 2xFMN.28] (Eterna round: R96, puzzle: Exclusion NG 2) | 675 | 385 | 1110 | – | – |
| AAGAAACAUGAGGAUCACCCAUGUGAGGAUAUGACUAAGAAAAGAAAAGAAAGAAGAGUCAGAAGGCACAAAGG [salish99-ex1_r3_068] (puzzle: Exclusion 1) | – | – | – | 128 | apparent KD of MS2 coat protein [2]: 215 nM; apparent KD of MS2 coat protein [4]: 189 nM |
| AAACAGCAAGGAUAUACGGGCUGUGCUUUUCAUAUCAUACAACAUGAGGAUCACCCAUGUAGAAGGUGCAACAA [Ex2 #3] (Eterna round: R97, puzzle: Exclusion 2) | 146 | 44 | – | – | – |
| UUUAGUUGGUAAGGAUAUCCUACAUUGUUCUGGCCCGGGCAUGCUACAUGAGGAUCACCCAUGUGGGAGAAGGUGCGUCAUCGC [Design 19] (Eterna round: R96, puzzle: Exclusion NG 2) | 51.4 | 47.9 | 39.4 | – | – |
| AUCUCUCGUGUUAGGAUAUCCAGUUAGUUCGUGCGGGAGAAGGAACAUGAGGAUCACCCAUGUAAACAAAUCGC [BmEX4 B.21] (Eterna round: R97, puzzle: Brourd's mod of Exclusion 4) | 52.1 | 18.5 | – | – | – |
| GUUAUACAUGAGGAUCACCCAUGUCAGGAUAUUAUCUAUCUUUGGAAGCAUUGAUCGCUAAGAAGGGACUAGUA [Bubbles2] (Eterna round: R97, puzzle: Exclusion 1) | 28 | 33 | – | – | – |
| GGCCGUAAUAAGGAUAUCACUAGCUGCGGCUAGUGAGAAGGUAUUACAUGAGGAUCACCCAUGUGGUCAGGCCA [E6/4-B3] (Eterna round: R97, puzzle: Exclusion 6) | 1060 | 284 | – | – | – |
| UCCUGACAUGAGGAUCACCCAUGUAAGGAUAUCAGCCACCCAGCAAAAGCUGGGCAAGUGAGAAGGUACACGGG [EX1 A.30] (Eterna round: R97, puzzle: Exclusion 1) | 157 | 30.6 | – | – | – |
| AAACAGGAAGGAUAUACAUUAUCGGAUCUUCUGGCAAUGCCACAUGAGGAUCACCCAUGUAGAAGGUCCAAAUU [Isenona] (puzzle: Exclusion 2) | – | – | – | 12.7 | – |
| UCACGGGACUGAGGAUAUACAUGAAUUAUUUUUGUAGAAGGCAGAAUGUUAGUUUAUUCACUAUACAUGAGGAUCACCCAUGUU [JR_ExcNG1_Sub021] (Eterna round: R96, puzzle: Exclusion NG 1) | 21.5 | 32.9 | 26.7 | – | – |
| UAUGUCUCAGGAGGAUAUCUCCCGGUUGCCGUUAGAGAAGGCUUGAAACAUGAGGAUCACCCAUGUAAAUGGCCCGUCCUCCAA [Atsodibian] (Eterna round: R96, puzzle: Exclusion NG 1) | 15.4 | 14.7 | 9.77 | – | – |
| UUAAUACAUGUAGGAUAUGCGUGGCGAAGCUAUGCAGAAGGACAUGAGGAUCACCCAUGUCUCUGCGUCCGCGUACGGAUGCAA [JL Eng1 1.21 mod 5] (Eterna round: R96, puzzle: Exclusion NG 1) | 13.9 | 15.8 | 11.6 | – | – |
| AAUAACAAGCUGAUCCUUCACAUGAGGAUCACCCAUGUGCUCGUCUUGUAAAGUACUAUCACGAAAGUGAUAGUACA (Eterna round: R97, puzzle: Sensor, turn-off variant 1) | 127 | 125 | – | – | – |
| GCUGGUCGAGGAUAUACAUGAGGAUCACCCAUGUGGUCACGUGACGAUAGUCACGAAUGUAGAAGGCGACCAGC [E3/3-A1] (Eterna round: R97, puzzle: Exclusion 3) | 66.9 | 161 | – | – | – |
| UGACAGGAGUAGGAUAUGCCCACCGUCCGACUGGCAGAAGGACUCACAUGAGGAUCACCCAUGUAGUUAUGUAC [Eternabot (L2) Solution 96] (Eterna round: R97, puzzle: Exclusion 6) | 20.1 | 16 | – | – | – |
| AACUAACAUGUAGGAUAUGCGUGGCGAAGCUAUGCAGAAGGACAUGAGGAUCACCCAUGUUUUAGCGUCUGCGUACAGAUGCAU [JL ENG1 1.41] (Eterna round: R96, puzzle: Exclusion NG 1) | 146 | 20.8 | 16.6 | – | – |
| AGGAUGUUAGGAUAUGCUAGAGUACUACAGAGUACUACGGAGCAGAAGGAACAUGAGGAUCACCCAUGUCACCU [Exclusion 4 R4 S1] (Eterna round: R97, puzzle: Exclusion 4) | 19.9 | 14 | – | – | – |

| Sequence | apparent KD of MS2 coat protein (input ligand: FMN 200 uM) [nM] | apparent KD of MS2 coat protein (input ligand: none) [nM] | apparent KD of MS2 coat protein [1] [nM] | apparent KD of MS2 coat protein [3] [nM] | further results |
| --- | --- | --- | --- | --- | --- |
| GUUUCACAUGAGGAUCACCCAUGUGAGGAUAUACAUUUGUUAACCGUAGUUAAUAGAUGUAGAAGGCGCGUGAU [JRxlusion 4 - Jieux - Exclusion 1] (Eterna round: R97, puzzle: Exclusion 1) | 50.6 | 62.6 | – | – | – |
| AACAAACAUGAGGAUCACCCAUGUGAGGAUAUGCAACAAAACAAAACAAAACAAAACAGCAGAAGGCACACAAC [A-G Solution By Eric] (puzzle: Exclusion 1) | – | – | – | 19.2 | apparent KD of MS2 coat protein [2]: 17.2 nM; apparent KD of MS2 coat protein [4]: 14.6 nM |
| UUGUCUAAUGUGAGGAUAUGCUGGUCCAUAGAUCAGCAGAAGGCACAUGAGGAUCACCCAUGUGAUAACACAAU (Eterna round: R97, puzzle: Brourd's mod of Exclusion 4) | 296 | 21.3 | – | – | – |
| GCCUGUGAAGGAUAUACAUGAGGAUCACCCAUGUGGCGGAUAUACCCGCCGAGACCGUGUAGAAGGUCAUAGUA [Xezauser] (puzzle: Exclusion 3) | – | – | – | 36.1 | – |
| AAGUCCUUGUGGACACAUGAGGAUCACCCAUGUGCGGUCAGCGAGGAUAUCGGUCUAUAAUGUGACGAGAAGGCGCGGACCGAU [Ex NG3 #61] (Eterna round: R96, puzzle: Exclusion NG 3) | 26.2 | 21.3 | 15.3 | – | – |
| AAGAUGCGGGUAGGAUAUGGAAAUUAAUAAAGACCAGAAGGACUGGUCACACAACAUGAGGAUCACCCAUGUGUGUGUUGUGAA [AK ExNG1-6] (Eterna round: R96, puzzle: Exclusion NG 1) | – | – | 9.06 | – | – |
| AAUUAUUUUUGAGGAUAUUGUGGUGAAACACCACAAGAAGGCAAGAUACACAUGAGGAUCACCCAUGUGAGCCUGAUGCUUAUG [Ex NG1 #53] (Eterna round: R96, puzzle: Exclusion NG 1) | – | – | 13.1 | – | – |
| CAGUACUGAGGAUAUACAUGAGGAUCACCCAUGUGCACCAGCUAGGAUACUAGCAAAAGUAGAAGGCAGUACUG [Mat - Exclusion 3 - Eli Mod - D19] (Eterna round: R97, puzzle: Exclusion 3) | 118 | 16.1 | – | – | – |
| UAGAUGGGAGGAUAUACAUAGAUACAGAUUCAUGUAGUGCUACAUGAGGAUCACCCAUGUAGAAGGCCCGUCUU [JL-ex2-2.18 Mayanne mod] (Eterna round: R96, puzzle: Exclusion 2) | 407 | 37.9 | 33.2 | – | – |
| CGUGACUCAGGAUAUCUAUAGUGUCACAUGAGGAUCACCCAUGUCCAGCGAAAGCUGGAGGGAGAAGGGAGUCACG [Fiskers Ex 5 - 43] (puzzle: Exclusion 5) | – | – | – | 90.5 | – |
| UAUAUAUAGUAAGGAUAUGUAAUUAGUUUAUAAACAGAAGGUACUGACAUGAGGAUCACCCAUGUUUUAGUGUGGGCAUGUAGA [JMF's solution 36] (Eterna round: R96, puzzle: Exclusion NG 1) | – | – | 61.3 | – | – |
| CCGGUAAAGGAGGAUAUAGGAGUCGAUAGACACCUAGAAGGCCUGACAUGAGGAUCACCCAUGUGUCCUUCCGG [Fiskers Ex 6 - 94] (puzzle: Exclusion 6) | – | – | – | 16.8 | – |
| GAUACACAUGAGGAUCACCCAUGUGAGGAUAUGAUACUAUGUACUUCGGUACAUAGUAUCAGAAGGCACAUUGA [Ex1-3: 44] (puzzle: Exclusion 1) | – | – | – | 61.2 | – |
| UUUAAGUCAGGAUAUACAUGAGGAUCACCCAUGUAAAAUUUUAAUUUAAUUUUAAGGUGUAGAAGGGACAAUUU [Ex3 #3] (Eterna round: R97, puzzle: Exclusion 3) | 29.5 | 34.9 | – | – | – |
| CCCUCACAUGAGGAUCACCCAUGUCAGGAUAUUCGAGGCGCAAAUGCGCCAAAUGCAGGAAGAAGGGACGUGCC [Isqubemaor] (puzzle: Exclusion 1) | – | – | – | 14 | – |
| GGUGCGUUUGUGAGGAUAUGCUGGUCCUUGGAUCUGCAGAAGGCACAUGAGGAUCACCCAUGUGGUGUCGUACC [salish99_Bmod_Ex4_036] (puzzle: Brourd's mod of Exclusion 4) | – | – | – | 208 | – |
| UGUGCGUAUGUGAGGAUAUGCUGGUCCUUGGCUCGGCAGAAGGCACAUGAGGAUCACCCAUGUGGUGUCGUACG [salish99_Bmod_ex4_064] (puzzle: Brourd's mod of Exclusion 4) | – | – | – | 52.1 | – |
| GUUUGCGCAGGAUAUACAUGAGGAUCACCCAUGUGAGAGAAAGAAGUGAGGAAGAAAAGUAGAAGGGCGUGACG [Mat - Exclusion 3 - Mod of Salish D72] (puzzle: Exclusion 3) | – | – | – | 58.4 | apparent KD of MS2 coat protein [2]: 301 nM; apparent KD of MS2 coat protein [4]: 39 nM |
